This test deals with RBD-Fc (secreted recombinant receptor-binding domain of SARS-CoV-2 spike) (SARS-CoV-2, UniProt P0DTC2). As to the kind of experiment: immunoassay on cellulose filter paper discs.

B1: Ty1-CBD bifunctional fusion protein (nanobody Ty1 fused to a cellulose-binding domain) (VHH)
VHH: QVQLVETGGGLVQPGGSLRLSCAASGFTFSSVYMNWVRQAPGKGPEWVSRISPNSGNIGYTDSVKGRFTISRDNAKNTLYLQMNNLKPEDTALYYCAIGLNLSSSSVRGQGTQVTVSS
B1: the binding result is listed as “binds”.

B2: Ty1 without CBD module (control protein) (VHH)
VHH: QVQLVETGGGLVQPGGSLRLSCAASGFTFSSVYMNWVRQAPGKGPEWVSRISPNSGNIGYTDSVKGRFTISRDNAKNTLYLQMNNLKPEDTALYYCAIGLNLSSSSVRGQGTQVTVSS
With B2, the binding result is recorded as “binds”.

These data come from paper doi:10.1101/2021.09.01.458653 (bioRxiv, 2021).
